Measured values from paper PMC4595836.

Biological target: T1, ScbR (Streptomyces coelicolor A3(2) M145) (UniProt Q7AKF1)
T1 sequence: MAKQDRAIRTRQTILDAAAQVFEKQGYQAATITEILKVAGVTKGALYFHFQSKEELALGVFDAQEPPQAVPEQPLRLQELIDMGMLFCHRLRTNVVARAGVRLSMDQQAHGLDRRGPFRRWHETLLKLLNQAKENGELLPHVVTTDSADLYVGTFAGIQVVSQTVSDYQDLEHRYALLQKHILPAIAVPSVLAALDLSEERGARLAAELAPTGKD
Assay: DNase I footprinting
Settings: EMSA: 6-12 ng probe, ScbR 0.21-3.77 uM, ScbR2 0.207-4.15 uM; buffer, salt, pH and temperature not in material (as described in earlier work)

**Q.** For “CCCTCATGTCCGAACAGCTCGACACCGCCGTCGAAACAGACGGCAAGGGCGACCTCGCCACGTTGTTCAACGGTGGGGACACCTTCTCCCATTGAAAACCGGCGAGGAGGTTTGTTAATCCCATGTTCCCTGGACCGACCTGTTTCGAGATCGAGGAGGACAGTTGAGCGCCACTTCTGCCCCCGCACCCCAGCACGGCATGACCTGGCTGGGAGCCATCGTGGAGGACGGCTTCACGGAGACGTTGCAGGACGGGCTCAG (double strand) [sco6268 promoter footprint probe]”, which binding is on record?
**A.** binds
